Experiment [1] deals with His-MBP-Red1 452-524 (S. pombe) (UniProt Q9UTR8). Description: SEC-MALS; His-MBP-Red1 452-524, the dimer peak, injected at 9 mg/ml; stayed dimeric on reinjection.
In experiment [2] the target is Ars2 68-183,206-531 (S. pombe) (UniProt O94326). Description: SEC-MALS; Ars2 68-183,206-531, the dimer peak of the size exclusion chromatography. (In gel filtration, larger molecules generally elute earlier.)
Experiment [3] addresses T1, full-length (FL) His-MBP-Ars2 (S. pombe, UniProt O94326 1-609).
T1 chain: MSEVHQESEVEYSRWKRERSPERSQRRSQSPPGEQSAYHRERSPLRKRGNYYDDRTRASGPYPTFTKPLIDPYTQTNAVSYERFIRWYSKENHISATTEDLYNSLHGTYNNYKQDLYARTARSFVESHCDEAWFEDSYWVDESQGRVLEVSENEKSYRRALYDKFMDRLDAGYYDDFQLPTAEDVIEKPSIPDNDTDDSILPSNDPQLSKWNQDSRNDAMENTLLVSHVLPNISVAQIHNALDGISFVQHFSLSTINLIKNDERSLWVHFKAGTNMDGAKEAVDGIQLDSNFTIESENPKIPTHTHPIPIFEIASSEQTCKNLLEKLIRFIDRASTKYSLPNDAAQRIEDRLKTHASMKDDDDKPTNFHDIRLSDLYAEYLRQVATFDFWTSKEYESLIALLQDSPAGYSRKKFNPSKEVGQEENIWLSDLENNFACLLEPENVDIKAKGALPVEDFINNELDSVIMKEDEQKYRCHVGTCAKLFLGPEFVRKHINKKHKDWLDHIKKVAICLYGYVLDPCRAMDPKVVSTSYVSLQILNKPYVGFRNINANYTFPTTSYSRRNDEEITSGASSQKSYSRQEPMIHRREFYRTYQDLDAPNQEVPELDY
The experiment can be described thus: ITC; 200 mM NaCl.

Experiment [4] concerns the target full-length (FL) His-MBP-Ars2 (S. pombe) (UniProt O94326). Description: ITC; 25 °C, 0.4-0.8 mM Red1 injected into 30-40 µM Ars2, 20 mM Tris pH 8.0, 200 mM NaCl, one-site model. (In general: Isothermal titration calorimetry measures the heat released or taken up as one component is titrated into another.)
In experiment [5] the target is T2, full-length (FL) His-MBP-Ars2 (S. pombe, UniProt O94326 1-609).
T2 construct: Ars2, S. pombe, 609 residues; the tags are named on the protein for the gel filtration; also called FL Ars2; full-length Ars2; source: E. coli, expressed as MBP fusion, purified (amylose resin, Superdex 200)
T2 sequence (looked up): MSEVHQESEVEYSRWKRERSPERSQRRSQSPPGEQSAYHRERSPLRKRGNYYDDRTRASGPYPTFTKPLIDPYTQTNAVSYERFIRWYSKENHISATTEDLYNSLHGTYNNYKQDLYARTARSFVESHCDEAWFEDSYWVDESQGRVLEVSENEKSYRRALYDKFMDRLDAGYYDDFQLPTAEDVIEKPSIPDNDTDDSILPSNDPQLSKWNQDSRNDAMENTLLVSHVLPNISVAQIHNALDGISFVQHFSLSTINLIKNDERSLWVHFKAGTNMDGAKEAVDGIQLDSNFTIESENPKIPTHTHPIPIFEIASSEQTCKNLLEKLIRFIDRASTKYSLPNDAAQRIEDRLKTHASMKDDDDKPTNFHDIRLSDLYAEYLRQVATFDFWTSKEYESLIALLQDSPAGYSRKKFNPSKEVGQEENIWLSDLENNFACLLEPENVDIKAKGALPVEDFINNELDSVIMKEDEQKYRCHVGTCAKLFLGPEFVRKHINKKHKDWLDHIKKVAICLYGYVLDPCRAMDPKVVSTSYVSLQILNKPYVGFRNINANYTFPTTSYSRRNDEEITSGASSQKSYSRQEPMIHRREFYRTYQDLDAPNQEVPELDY
The experiment is described as above. The conditions noted are these: both partners purified.

For experiment [6], the target named is T3, His-GST-tagged human ARS2 147-871 (human, UniProt Q9BXP5 147-871).
T3 construct: ARS2 (SRRT), human, residues 147-871; vector pETM30; also called hARS2^147–871; His-GST-ARS2; source: E. coli BL21Star (DE3), purified (Ni^2+ chelating Sepharose)
T3 sequence (looked up): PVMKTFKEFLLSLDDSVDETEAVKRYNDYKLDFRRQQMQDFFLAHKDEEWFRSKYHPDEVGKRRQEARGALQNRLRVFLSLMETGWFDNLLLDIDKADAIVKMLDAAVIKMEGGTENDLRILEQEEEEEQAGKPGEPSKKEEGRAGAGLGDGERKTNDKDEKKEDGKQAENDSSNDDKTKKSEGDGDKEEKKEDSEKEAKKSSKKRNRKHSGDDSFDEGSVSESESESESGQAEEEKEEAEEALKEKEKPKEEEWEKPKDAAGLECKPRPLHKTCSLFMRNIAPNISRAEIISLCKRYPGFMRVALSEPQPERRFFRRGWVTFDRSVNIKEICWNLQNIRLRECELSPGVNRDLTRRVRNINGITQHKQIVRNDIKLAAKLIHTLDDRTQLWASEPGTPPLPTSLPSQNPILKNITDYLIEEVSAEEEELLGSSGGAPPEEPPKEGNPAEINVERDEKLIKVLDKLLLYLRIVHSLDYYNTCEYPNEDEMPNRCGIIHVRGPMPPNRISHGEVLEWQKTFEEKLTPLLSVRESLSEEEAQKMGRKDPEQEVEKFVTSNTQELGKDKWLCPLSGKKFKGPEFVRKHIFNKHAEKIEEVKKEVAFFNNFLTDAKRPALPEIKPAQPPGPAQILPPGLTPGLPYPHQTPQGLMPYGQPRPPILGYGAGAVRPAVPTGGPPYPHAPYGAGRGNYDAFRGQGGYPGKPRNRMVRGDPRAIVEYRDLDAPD
The experiment can be described thus: pull-down; MBP pull-down: Ni-purified His-MBP-peptide held on amylose resin, His-GST-ARS2 added; 20 mM Tris pH 8, 100 mM NaCl; eluted with 10 mM maltose. The following applies: both partners purified.

Experiment [7] deals with T4, Ars2 (58-609) (Schizosaccharomyces pombe).
T4 chain: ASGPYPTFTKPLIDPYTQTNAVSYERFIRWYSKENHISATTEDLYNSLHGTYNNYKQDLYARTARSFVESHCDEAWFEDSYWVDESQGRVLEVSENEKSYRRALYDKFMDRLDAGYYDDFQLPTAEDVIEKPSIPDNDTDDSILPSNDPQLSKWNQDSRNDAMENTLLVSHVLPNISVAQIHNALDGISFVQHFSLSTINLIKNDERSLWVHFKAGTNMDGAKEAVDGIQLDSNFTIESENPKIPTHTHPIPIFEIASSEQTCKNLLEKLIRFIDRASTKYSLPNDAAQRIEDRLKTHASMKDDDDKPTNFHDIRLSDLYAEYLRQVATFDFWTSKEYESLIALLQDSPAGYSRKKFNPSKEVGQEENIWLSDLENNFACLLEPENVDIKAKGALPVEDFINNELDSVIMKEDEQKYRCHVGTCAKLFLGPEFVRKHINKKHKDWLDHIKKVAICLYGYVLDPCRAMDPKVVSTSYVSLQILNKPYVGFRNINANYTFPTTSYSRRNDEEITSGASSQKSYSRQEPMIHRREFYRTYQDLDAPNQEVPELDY
Description: ITC; 200 mM NaCl.

The target of experiment [8] is T5, Strep-Ars2 107-527 (S. pombe, UniProt O94326 107-527).
T5 construct: vector pETM41; source: E. coli BL21Star (DE3), purified (Ni^2+ chelating Sepharose); not shown: Strep-tag, C-terminal, kept
T5 sequence (looked up): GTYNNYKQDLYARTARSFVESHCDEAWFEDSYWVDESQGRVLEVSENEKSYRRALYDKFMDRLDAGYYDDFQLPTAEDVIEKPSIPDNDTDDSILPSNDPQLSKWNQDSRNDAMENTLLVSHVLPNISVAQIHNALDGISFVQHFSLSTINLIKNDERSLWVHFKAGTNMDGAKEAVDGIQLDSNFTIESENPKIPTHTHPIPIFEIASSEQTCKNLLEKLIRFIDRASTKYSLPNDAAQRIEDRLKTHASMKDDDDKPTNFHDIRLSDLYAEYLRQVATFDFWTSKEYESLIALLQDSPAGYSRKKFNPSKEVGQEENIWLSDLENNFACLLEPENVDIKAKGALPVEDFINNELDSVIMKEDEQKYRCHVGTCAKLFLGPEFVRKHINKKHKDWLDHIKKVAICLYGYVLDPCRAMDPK
Description: ITC; 25 °C, 0.4-0.8 mM Red1 injected into 30-40 µM Ars2, 20 mM Tris pH 8.0, 200 mM NaCl, one-site model. The conditions noted are these: both partners purified.

Experiment [9] has as its target T5, Strep-Ars2 107-527. Description: ITC; 25 °C, 0.4-0.8 mM Red1 injected into 30-40 µM Ars2, 20 mM Tris pH 8.0, 100 mM NaCl, one-site model. The conditions noted are these: both partners purified.
Experiment [10] addresses Strep-Iss10 1-45 (S. pombe). The experiment can be described thus: SEC-MALS; co-purified Red1 192-236 / Iss10 1-45 complex on Superdex 200 10/300 GL, 4 °C, 20 mM Tris-HCl pH 8, 100 mM NaCl, 5 mM β-mercaptoethanol.

Where no end group is shown, it is not given here.

By stoichiometry N is commonly meant a count of units in the complex or per binding partner. In general, Kd refers to the concentration at which binding is half-saturated. Read a low Kd as tighter binding.

Consider “His-MBP-Red1 452-524 (from UniProt Q9UTR8 452-524) (domain or fragment)”, for which the stoichiometry N in experiment [1] is 2.

The molecule “Ars2 68-183,206-531 (from UniProt O94326 68-183; O94326 206-531) (domain or fragment)” showed a stoichiometry N in [2] of 2.

B1: His-MBP-Red1 1-54 (domain or fragment)
chain: MSRSINLDELRKKALESKKKNEEDESNDSDKEDGEISEDDPVIDQSNSVPPMKV
Turning to B1, the results for the Kd in experiment [3] and in experiment [4] were 5.6 µM and 5 µM, respectively.

B2: Red1 peptide 20-40 (peptide)
peptide: KNEEDESNDSDKEDGEISEDD
notes: Red1, S. pombe, residues 20-40 with the EDGEI motif; also called Red1^20–40 peptide; Red1 N-terminal peptide; source: synthetic peptide (PSL GMBH)
Molecule B2 had a Kd in [5] of roughly 5 µM.

B3: His-MBP-ZFC3H1 20-31 (domain or fragment, human, UniProt O60293 20-31, looked up)
chain: GELEDGEISDDD
notes: ZFC3H1, human, residues 20-31 (12 residues); source: E. coli BL21Star (DE3), purified (Ni^2+ chelating Sepharose)
Turning to B3, the binding result in experiment [6] is given as “binds”.

For the molecule KNEEDESNDSDKEDGEISEDD (not fully specified), in experiment [7], the dissociation constant (Kd) is 4.4 µM.

B4: His-MBP-Red1 20-40 (domain or fragment, S. pombe)
chain: KNEEDESNDSDKEDGEISEDD
notes: Red1, S. pombe, residues 20-40 with the EDGEI motif; vector pETM41; also called MBP-Red1 EDGEI motif-containing peptide; source: E. coli BL21Star (DE3), purified (Ni^2+ chelating Sepharose or amylose resin, Superdex 200)
Regarding B4, the figures for the Kd in [5], in experiment [8] and in experiment [9] were roughly 5 µM, 5 µM and 0.8 µM, respectively. The binding result in experiment [6] is “binds”.

In experiment [10], TTNQKEAEKAVSQLFEVGVRFNDFIAEGIEPSVVHTLFLKLGLDS (domain or fragment) [Red1 192-236, His-MBP tag cleaved] had a stoichiometry N of 1.

B5: His-MBP-tagged ZFC3H1 12-33 (domain or fragment, human, UniProt O60293 12-33, looked up)
chain: SGLSPKEEGELEDGEISDDDNN
notes: ZFC3H1, human, 1989 residues, residues 12-33 with the EDGEI motif; vector pETM41; also called MBP-ZFC3H1; hZFC3H1; source: E. coli BL21Star (DE3), purified (Ni^2+ chelating Sepharose)
For B5, the binding result in experiment [6] is “binds”.

B6: His-MBP-ZFC3H1 12-33 I27L (domain or fragment, human, UniProt O60293 12-33, looked up)
chain: SGLSPKEEGELEDGELSDDDNN
notes: ZFC3H1, human, residues 12-33; source: E. coli BL21Star (DE3), purified (Ni^2+ chelating Sepharose)
For B6, the binding result in experiment [6] is reported as “binds”.

The record behind these values is PMC9402713, “Structural analysis of Red1 as a conserved scaffold of the RNA-targeting MTREC/PAXT complex” (Nature Communications, 2022).
